{
  "source": "paper PMC2666074",
  "about": "(Biochemistry, 2008)",
  "origin": "cited, not measured here",
  "molecules": {"B1": {"name": "Siah-1: Siah-1 overexpressed by transient transfection of pSiah-1-FLAG (protein, UniProt Q8IUQ4 1-282, looked up)", "E3 ubiquitin-protein ligase …": "MSRQTATALPTGTSKCPPSQRVPALTGTTASNNDLASLFECPVCFDYVLPPILQCQSGHLVCSNCRPKLTCCPTCRGPLGSIRNLAMEKVANSVLFPCKYASSGCEITLPHTEKADHEELCEFRPYSCPCPGASCKWQGSLDAVMPHLMHQHKSITTLQGEDIVFLATDINLPGAVDWVMMQSCFGFHFMLVLEKQEKYDGHQQFFAIVQLIGTRKQAENFAYRLELNGHRRRLTWEATPRSIHEGIATAIMNSDCLVFDTSIAQLFAENGNLGINVTISMC", "modifications": "FLAG tag"}},
  "tested_on": "β-catenin in HEK293 cells",
  "conditions": "no detectable levels of S100A6, ref Matsuzawa and Reed (2001)",
  "data": [
    {"molecule": "B1", "values": [
      {"measurement": "level of β-catenin upon Siah-1 transfection, in words", "value": "reduced levels of β-catenin"}
    ]}
  ]
}
